From publication doi:10.1101/2025.02.13.638105
Where two headings read alike, the source gives them in different places.

Key:
[1] = target: human recombinant wildtype neurofibromin isoform I (human) (UniProt P21359); test: cryo-EM structure
[2] = target: human recombinant wildtype neurofibromin isoform I (human) (UniProt P21359); test: cryo-EM structure; remark: listed apart in the source

Substance: human recombinant wildtype neurofibromin isoform I, P21359-2 1-2818
- dimers per tetramer (counts of single particles) [1]: 4
- stoichiometry N [1]: 4
- stoichiometry N [2]: 2
